Like-named read-outs stand apart in the source and are kept apart here.
Legend:
[1] = target: T1, His662 (UniProt position 662, MKQVKHIPESK); assay: NMR; settings: 35 °C (default for NMR experiments; not restated for the titration), 50 mM NaCl, 20 mM Tris, 10 mM CHAPS, no CaCl2, formate and imidazole included as internal pH indicators, pH adjusted with 1 M HCl, Ca2+-free (apo), Ca2+-binding-deficient mutant, folded
[2] = target: T1, His662; settings: cited from earlier work

Substance	pKa [1]	pKa ([2]; Ca2+-bound (holo) WT)	pKa ([2]; Ca2+-free (apo) WT)
LETM1 F-EF-hand domain D676A/N678A (AEA) mutant (Homo sapiens; D676A;N678A)	6.58 ± 0.06		
LETM1 F-EF-hand domain, wild type (Homo sapiens)		~6.28	~6.39

Source: publication PMC11995678
